According to patent publication US7267959B2, “Drug target within the sulfonylurea receptor” (priority 2001, dated 2007):

Tests used:
[1] = molecular target: T1, KATP channel (SUR1/KATP complex) in insulinoma HIT cells (Cricetus cricetus, UniProt Q09427); assay: KATP whole-cell patch-clamp currents in insulinoma HIT cells; type: cell-based
T1 construct: in HIT cells on the endogenous KATP whole-cell currents; endogenous in cells; host or cells: insulinoma HIT cells
Protocol: Representative KATP whole-cell patch-clamp currents recorded from the control and syntaxin-1A overespressing HIT cells are shown in FIG. 6A. Cells were stimulated by voltage steps from −140 to 0 mV from a holding potential of −50 mV. […] All currents were recorded 15 min after the formation of the whole-cell configuration when a cell interior exchanged with the pipette solution containing low (0.3 mM) ATP concentration. […] An asterisk indicates the first minutes of recording after obtaining the whole-cell configuration. Pipette solution contains 3 mM MgADP and only 0.3 mM ATP. […] Currents were measured at −120 mV, and normalized to the maximal current (Imax).

NBF-1 and NBF-2 of SUR-1 = assay: GST pull-down binding of Syn-1A or SNAP-25 with GST-NBF-1 / GST-NBF-2 of SUR-1, Western blot; conditions: 375 pmol protein each, 4° C., 2 hours, glutathione beads
Protocol: (§1) GST (control) or GST-NBF-1 or GST-NBF-2 (375 pmol protein)of SUR-1 or SUR-2A, bound to glutathione beads, was incubated with Syn-1A or SNAP-25 (375 pmol protein) in 25 mM Hepes (pH 7.4) with 50 mM NaCl, 0.1% gelatin, 0.1% Triton X-100, 0.1% BSA and 0.2% β-mercaptoethanol at 4° C. for 2 hours. Following washing the beads three times with 20 mM Hepes(pH 7.4) with 150 mM KoAc, 1 mM EDTA, 1 mM MgCl2, 5% glycerol and 0.1% Triton X-100, the samples were subjected to 15% SDS-PAGE, transferred to nitrocellulose membrane and probed with antibody against Syn-1A (1:2000) or SNAP-25 (1:1000).

[2] = test system: NBF-1 and NBF-2 of SUR-2A; assay: GST pull-down binding of Syn-1A or SNAP-25 with GST-NBF-1 / GST-NBF-2 of SUR-2A, Western blot; conditions: 375 pmol protein each, 4° C., 2 hours, glutathione beads
Protocol: as §1

[3] = molecular target: T2, KATP channel in rat pancreatic beta cells (Rattus norvegicus, UniProt Q09429); assay: KATP whole-cell patch-clamp currents in freshly isolated rat pancreatic beta cells; type: cell-based
T2 construct: recorded from the freshly isolated rat pancreatic beta cells; endogenous in cells; host or cells: freshly isolated rat pancreatic beta cells
T2 sequence (Q09429 whole entry): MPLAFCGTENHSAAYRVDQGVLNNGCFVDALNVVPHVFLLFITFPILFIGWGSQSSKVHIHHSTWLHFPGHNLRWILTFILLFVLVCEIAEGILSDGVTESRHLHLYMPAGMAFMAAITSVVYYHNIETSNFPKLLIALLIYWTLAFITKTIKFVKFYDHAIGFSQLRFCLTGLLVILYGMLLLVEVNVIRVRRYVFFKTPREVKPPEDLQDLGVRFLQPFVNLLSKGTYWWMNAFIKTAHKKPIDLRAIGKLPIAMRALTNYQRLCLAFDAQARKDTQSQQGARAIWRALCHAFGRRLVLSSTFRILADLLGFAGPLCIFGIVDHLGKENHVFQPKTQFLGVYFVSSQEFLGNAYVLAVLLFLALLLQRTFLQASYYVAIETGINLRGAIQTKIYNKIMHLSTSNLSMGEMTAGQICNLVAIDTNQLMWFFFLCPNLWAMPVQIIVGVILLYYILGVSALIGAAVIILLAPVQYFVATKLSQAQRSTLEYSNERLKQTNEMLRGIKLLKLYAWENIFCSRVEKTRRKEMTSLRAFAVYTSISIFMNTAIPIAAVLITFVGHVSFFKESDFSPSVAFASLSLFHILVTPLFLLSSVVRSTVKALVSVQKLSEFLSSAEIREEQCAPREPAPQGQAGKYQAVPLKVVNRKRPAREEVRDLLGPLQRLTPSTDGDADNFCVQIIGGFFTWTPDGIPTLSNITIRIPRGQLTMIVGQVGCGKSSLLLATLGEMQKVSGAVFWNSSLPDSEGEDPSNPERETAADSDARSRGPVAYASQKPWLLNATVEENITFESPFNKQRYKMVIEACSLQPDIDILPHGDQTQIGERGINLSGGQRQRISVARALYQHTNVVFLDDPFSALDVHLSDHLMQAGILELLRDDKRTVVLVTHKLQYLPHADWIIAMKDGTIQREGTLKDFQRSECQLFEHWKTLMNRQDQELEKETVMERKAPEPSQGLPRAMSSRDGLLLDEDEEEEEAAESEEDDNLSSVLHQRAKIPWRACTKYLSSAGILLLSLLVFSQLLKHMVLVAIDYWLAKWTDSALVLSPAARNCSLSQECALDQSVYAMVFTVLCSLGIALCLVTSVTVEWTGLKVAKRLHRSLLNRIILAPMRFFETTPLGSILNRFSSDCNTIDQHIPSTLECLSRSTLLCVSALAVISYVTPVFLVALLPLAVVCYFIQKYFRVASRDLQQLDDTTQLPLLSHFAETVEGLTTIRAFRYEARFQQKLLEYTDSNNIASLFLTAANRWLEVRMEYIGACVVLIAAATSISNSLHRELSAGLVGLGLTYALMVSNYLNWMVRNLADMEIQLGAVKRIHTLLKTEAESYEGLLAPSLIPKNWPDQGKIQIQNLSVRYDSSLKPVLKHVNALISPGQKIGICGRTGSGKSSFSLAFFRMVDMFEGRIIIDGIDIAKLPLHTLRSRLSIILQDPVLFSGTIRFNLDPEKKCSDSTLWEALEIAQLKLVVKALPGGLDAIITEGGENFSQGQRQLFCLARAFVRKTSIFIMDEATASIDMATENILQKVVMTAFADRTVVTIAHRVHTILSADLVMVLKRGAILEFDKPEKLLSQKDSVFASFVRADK
T2 sequence (P70673 whole entry partner): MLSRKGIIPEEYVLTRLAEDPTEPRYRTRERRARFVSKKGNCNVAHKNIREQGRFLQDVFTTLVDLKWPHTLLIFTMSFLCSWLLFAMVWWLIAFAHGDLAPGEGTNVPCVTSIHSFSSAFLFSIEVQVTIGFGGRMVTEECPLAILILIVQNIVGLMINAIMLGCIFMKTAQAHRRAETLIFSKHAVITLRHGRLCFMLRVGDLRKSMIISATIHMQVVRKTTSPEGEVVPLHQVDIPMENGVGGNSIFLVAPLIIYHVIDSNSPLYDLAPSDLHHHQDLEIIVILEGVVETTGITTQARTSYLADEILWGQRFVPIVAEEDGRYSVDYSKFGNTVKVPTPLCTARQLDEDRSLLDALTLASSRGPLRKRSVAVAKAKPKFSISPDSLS
Protocol: Representative KATP whole-cell patch-clamp currents recorded from the freshly isolated rat pancreatic beta cells in the absence (control) and presence of recombinant syntaxin-1A protein are shown in FIG. 7A. Cells were stimulated by voltage steps from −140 to −20 mV (or 0 mV) from a holding potential of −50 mV. […] Recombinant syntaxin-1A (10^−3 M) was dialyzed into the cell interior through the patch pipette. […] All currents were recorded 15 min after the formation of the whole-cell configuration when a cell interior exchanged with the pipette solution containing low (0.3 mM) ATP concentration that under control conditions opens the KATP channel.

T1 sequence (Q09427 whole entry, one chain of several): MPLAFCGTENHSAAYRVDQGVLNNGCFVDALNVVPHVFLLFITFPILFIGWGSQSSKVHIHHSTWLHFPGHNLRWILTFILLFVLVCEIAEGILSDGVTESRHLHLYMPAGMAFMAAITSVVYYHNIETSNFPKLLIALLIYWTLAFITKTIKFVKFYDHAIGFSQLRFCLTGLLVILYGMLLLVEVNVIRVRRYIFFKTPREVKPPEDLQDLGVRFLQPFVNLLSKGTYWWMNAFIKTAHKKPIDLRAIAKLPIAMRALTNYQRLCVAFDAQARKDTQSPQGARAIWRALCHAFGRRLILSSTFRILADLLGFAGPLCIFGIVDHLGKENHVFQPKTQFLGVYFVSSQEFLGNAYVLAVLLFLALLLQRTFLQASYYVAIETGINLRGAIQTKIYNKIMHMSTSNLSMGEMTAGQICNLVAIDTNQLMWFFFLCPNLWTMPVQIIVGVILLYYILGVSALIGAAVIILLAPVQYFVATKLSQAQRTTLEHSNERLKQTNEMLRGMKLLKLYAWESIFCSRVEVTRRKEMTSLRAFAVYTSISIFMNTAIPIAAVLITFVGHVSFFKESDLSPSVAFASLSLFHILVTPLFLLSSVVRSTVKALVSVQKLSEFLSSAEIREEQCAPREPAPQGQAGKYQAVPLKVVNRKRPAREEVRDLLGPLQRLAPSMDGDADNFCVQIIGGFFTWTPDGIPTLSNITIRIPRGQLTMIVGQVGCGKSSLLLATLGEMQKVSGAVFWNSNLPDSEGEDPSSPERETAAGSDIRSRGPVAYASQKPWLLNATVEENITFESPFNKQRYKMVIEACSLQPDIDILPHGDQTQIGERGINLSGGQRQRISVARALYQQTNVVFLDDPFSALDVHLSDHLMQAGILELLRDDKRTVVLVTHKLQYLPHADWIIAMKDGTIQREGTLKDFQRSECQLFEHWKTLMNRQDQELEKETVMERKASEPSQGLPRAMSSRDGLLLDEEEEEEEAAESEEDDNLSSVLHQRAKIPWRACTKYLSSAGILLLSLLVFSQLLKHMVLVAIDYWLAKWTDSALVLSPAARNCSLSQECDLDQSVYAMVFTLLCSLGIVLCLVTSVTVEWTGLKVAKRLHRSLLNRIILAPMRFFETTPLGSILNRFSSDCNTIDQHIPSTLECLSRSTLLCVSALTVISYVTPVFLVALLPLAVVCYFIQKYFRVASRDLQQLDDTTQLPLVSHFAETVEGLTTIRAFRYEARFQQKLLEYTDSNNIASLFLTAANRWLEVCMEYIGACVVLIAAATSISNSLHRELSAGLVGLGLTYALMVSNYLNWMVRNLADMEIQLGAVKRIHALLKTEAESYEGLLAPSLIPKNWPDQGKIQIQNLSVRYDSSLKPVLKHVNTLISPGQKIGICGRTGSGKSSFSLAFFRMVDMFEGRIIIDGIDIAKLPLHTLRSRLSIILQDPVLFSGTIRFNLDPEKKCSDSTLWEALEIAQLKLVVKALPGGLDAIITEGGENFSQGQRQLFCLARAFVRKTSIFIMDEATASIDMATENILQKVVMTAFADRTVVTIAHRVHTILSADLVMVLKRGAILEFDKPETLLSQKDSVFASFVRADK

In the case of MgADP [reference compound], the “reversal of syntaxin-1A inhibited KATP current at t=15 min compared with t=0 min” value ([1]; MgADP 3 mM in pipette, 0.3 mM ATP, syntaxin-1A overexpressing HIT cells, measured at −120 mV) is reported as 46%.

In the case of “syntaxin-1A: endogenous SNARE superfamily protein; recombinant rat syntaxin-1A (SEQ ID NO: 1) or overexpressed in cells”, the “binding (pull down) to NBF-1 and NBF-2 of SUR1” value (NBF-1 and NBF-2 of SUR-1) is reported as “directly ‘pulled’ down”, the “binding (pull down) to NBF-1 and NBF-2 of SUR2A” value [2] is reported as “directly ‘pulled’ down” and the “KATP whole-cell currents versus control cells” value ([1]; HIT cells transfected with (overexpressing) syntaxin-1A, pipette 0.3 mM ATP, 15 min) is reported as “reduced compared with the control cells”. For the same substance, the “KATP whole-cell current at t=15 min relative to t=0 min” value ([1]; syntaxin-1A overexpressing HIT cells (>3 fold by Western), pipette 0.3 mM ATP, measured at −140 mV) was “remained unchanged”, the “KATP whole-cell currents versus control beta cells” value ([3]; recombinant syntaxin-1A 10^−3 M dialyzed through patch pipette, 0.3 mM ATP, 15 min) was “reduced compared with the control beta cells” and the “inhibitory effect on mean KATP whole cell-currents (channel activity)” value ([3]; recombinant syntaxin-1A, 0.3 mM ATP in pipette, measured at −120 mV, recorded for 15 minutes) was “strongly inhibits”.
